US20240270866A1 (Alector, published 2024)
Numbering of substitutions follows the chain as printed.

T1: mouse SIRPA overexpressed on CHO cells (mouse, UniProt P97797 32-513)
T1 construct: also called CHO-muSIRPA
T1 sequence: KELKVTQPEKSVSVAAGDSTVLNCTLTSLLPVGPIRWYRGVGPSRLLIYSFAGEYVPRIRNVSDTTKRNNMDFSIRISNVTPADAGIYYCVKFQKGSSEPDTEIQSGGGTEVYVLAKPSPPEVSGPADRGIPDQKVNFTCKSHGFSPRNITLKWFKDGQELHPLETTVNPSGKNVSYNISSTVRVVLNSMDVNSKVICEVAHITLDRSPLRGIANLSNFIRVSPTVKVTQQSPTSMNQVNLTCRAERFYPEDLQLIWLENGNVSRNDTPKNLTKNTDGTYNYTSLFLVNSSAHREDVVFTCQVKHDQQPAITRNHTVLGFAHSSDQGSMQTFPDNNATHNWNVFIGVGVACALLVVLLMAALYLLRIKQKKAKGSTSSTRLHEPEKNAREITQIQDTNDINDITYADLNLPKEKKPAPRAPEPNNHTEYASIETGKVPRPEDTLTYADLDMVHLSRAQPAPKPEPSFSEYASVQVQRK

T2: Mouse SIRPA D1 Fc (mouse, UniProt P97797 32-150, limits assumed)
T2 sequence: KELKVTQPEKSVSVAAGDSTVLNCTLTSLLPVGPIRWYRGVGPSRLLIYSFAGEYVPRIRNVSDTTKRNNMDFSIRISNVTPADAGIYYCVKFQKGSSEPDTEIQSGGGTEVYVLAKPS

B1: SA-56-85 (antibody, V domains shown)
VH: EVQLLESGGGVVQPGRSLGLSCAASGSTFSYYGMSWVRQAPGKGLEWVASIWVDGSNKYYADSVKGRFTISRDNSKSTLYLQMNSLRAEDTAVYYCARGVETYSGPNWFDPWGQGTLVTVSS
VL: DIQMTQSPSSVSASVGDRVTITCRASQGISSWLAWYQQKPGKAPKLLIYAASSLQSGVPSRFSGSGSGTDFTLTISSLQPEDFATYYCQQAIYFPITFGGGTKVENQ
notes: IgG; also called SA-85
B2: SA-56-86 (antibody, V domains shown)
VH: B1 VH with E1Q, L5V, R16G, G19R, S27F, N57S, S77N
VL: B1 VL with N106I, Q107K
notes: IgG
B3: SA-56-87 (antibody, V domains shown)
VH: B1 VH with L5V, G19R, S27F, S77N, R98F, V100L
VL: B1 VL with N106I, Q107K
notes: IgG
B4: SA-5-59 (antibody, V domains shown)
VH: EVQLLESGGGLVQPGGSLRLSCAASGFTFDNYAMSWVRQAPGEGLEWVSAVSGSGGSTYYADSVRGRFTISRDNSKNTLYLQMDSLRAEDTAVYYCAKDTGIDFWARTPPYFDLWGRGTLVTVSS
VL: B1 VL with M4L, G28D, A91G, I92Y, Y93I, I96R, N106I, Q107K
notes: IgG
B5: SA-5-58 (antibody, V domains shown)
VH: B4 VH with N31S, E43K, V51I, Y60H, R65K, D84N, D103S, F104L, A106S, R107V
VL: B1 VL with M4L, G28D, A91G, I92Y, Y93I, I96R, N106I, Q107K
notes: IgG
B6: SA-5-57 (antibody, V domains shown)
VH: EVQLLESGGGLVQPGGSLRLSCAASGFTFDSYAMSWVRQAPGKGLEWVSATSGGGGSTYHADPVKGRFTISRDNSKNTLYLQMNSLRAEDTAVYYCAKDITDDFWSVTPPYFDLWGRGTLVTVSS
VL: B1 VL with M4L, G28D, A91G, I92Y, Y93I, I96R, N106I, Q107K
notes: IgG
B7: SA-5-61 (antibody, V domains shown)
VH: B4 VH with R19K, N31S, E43K, V51I, R65K, D84N, A106G, R107Q, T108Y
VL: B1 VL with M4L, G28D, A91G, I92Y, Y93I, I96R, N106I, Q107K
notes: IgG
B8: SA-13-68 (antibody, V domains shown)
VH: EVQLLESGGGLVQPGGSLRLSCAASGFTFTEYAMSWVRQAPGKRLEWVSAISGSGGSTYYADSVKGRFTISRDNSKNTLYLQMSSLRAEDTAVYYCARDNIQWGPHFYWGQGTLVTVSS
VL: DIQMTQSPSSLSASVGDRVTITCRASQSISSYLNWYQQKPGKAPKLLIYAASSLQSGVPSRFSGSGSGTDFTLTISSLQPEDFATYYCQQGYIYPPTFGGGTKVEIK
notes: IgG
B9: SA-19-72 (antibody, V domains shown)
VH: QVQLVESGGGVVQPGRSLGLSCAASGFTFSSYAMHWVRQAPGKGLEWVAGILYDGSNKYYADSVKGRFTISRDNSKNTLYLQMNSLRAEDTAVYYCARSNEKYTLGFAFDIWGQGTMVTVSS
VL: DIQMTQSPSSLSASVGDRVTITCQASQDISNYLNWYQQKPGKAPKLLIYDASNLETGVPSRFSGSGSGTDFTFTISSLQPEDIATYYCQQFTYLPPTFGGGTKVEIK
notes: IgG
B10: SA-19-78 (antibody, V domains shown)
VH: B9 VH with G19R, A33G, G50V, L52A, Y59L, N84D, R98T, N100D, E101T
VL: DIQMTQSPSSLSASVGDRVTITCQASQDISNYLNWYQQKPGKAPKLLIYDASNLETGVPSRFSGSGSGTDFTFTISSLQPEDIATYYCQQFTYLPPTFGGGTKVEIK
notes: IgG
B11: SA-19-79 (antibody, V domains shown)
VH: B9 VH with G19R, A33G, G50V, L52A, Y59I, R98T, S99T, N100D, E101T
VL: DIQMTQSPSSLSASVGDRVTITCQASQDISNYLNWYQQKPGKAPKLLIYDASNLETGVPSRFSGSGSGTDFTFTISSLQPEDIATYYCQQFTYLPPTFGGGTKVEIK
notes: IgG
B12: SA-19-75 (antibody, V domains shown)
VH: B9 VH with G19R, A33G, G50V, L52A, Y59L, R98L, S99M, N100R, E101T
VL: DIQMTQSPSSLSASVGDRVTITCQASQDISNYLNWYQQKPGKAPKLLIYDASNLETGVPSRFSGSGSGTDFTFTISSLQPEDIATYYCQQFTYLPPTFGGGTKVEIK
notes: IgG
B13: SA-19-74 (antibody, V domains shown)
VH: B9 VH with G19R, T28A, S99H, N100S, E101Q
VL: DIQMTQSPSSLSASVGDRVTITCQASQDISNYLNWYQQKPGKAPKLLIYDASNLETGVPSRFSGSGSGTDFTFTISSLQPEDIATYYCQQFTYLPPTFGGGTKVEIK
notes: IgG
B14: SA-19-84 (antibody, V domains shown)
VH: B9 VH with G19R, A33G, G50V, L52A, Y59L, S99T, N100Q, E101L
VL: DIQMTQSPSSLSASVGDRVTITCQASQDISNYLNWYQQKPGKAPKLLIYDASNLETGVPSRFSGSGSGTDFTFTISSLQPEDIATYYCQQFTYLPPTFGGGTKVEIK
notes: IgG
B15: SA-19-77 (antibody, V domains shown)
VH: B9 VH with G19R, A33G, H35A, G50Q, K58E, S99D, N100L, E101T
VL: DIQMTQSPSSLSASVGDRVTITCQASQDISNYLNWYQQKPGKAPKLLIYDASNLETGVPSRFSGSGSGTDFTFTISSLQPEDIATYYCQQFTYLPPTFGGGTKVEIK
notes: IgG
B16: SA-19-76 (antibody, V domains shown)
VH: QVQLVESGGGVVQPGRSLRLSCAASGFTFSSYGMHWVRQAPGKGLEWVAVIAYDGSNKLYADSVKGRFTISRDNAKNSLYLQMNSPRAEDTAVYYCATMRTKYTLGFAFDIWGQGTMVTVSS
VL: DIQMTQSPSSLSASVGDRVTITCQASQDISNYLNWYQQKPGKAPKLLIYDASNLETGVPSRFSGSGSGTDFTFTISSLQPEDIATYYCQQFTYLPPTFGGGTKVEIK
notes: IgG
B17: SA-19-82 (antibody, V domains shown)
VH: B9 VH with G19R, S99H, N100V, E101L
VL: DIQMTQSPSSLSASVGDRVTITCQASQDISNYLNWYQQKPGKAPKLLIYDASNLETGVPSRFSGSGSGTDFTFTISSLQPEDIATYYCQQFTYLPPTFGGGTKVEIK
notes: IgG
B18: SA-19-73 (antibody, V domains shown)
VH: B9 VH with V11L, R16G, G19R, R98N, N100D, E101T
VL: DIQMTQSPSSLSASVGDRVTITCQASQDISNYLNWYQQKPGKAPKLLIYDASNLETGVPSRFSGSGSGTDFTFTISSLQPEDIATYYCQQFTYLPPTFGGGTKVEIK
notes: IgG
B19: SA-19-83 (antibody, V domains shown)
VH: B9 VH with G19R, S30D, A33L, G50S, L52I, R98S, S99V, N100R, E101T
VL: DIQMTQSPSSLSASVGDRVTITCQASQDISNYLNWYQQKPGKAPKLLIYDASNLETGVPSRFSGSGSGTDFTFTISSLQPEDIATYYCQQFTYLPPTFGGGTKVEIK
notes: IgG
B20: SA-19-80 (antibody, V domains shown)
VH: B9 VH with Q1E, V5L, G19R, A33G, N84D, S85G, S99H, N100S, E101V
VL: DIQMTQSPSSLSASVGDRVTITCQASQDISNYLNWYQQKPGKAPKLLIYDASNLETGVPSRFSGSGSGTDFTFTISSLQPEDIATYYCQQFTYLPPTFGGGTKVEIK
notes: IgG
B21: SA-19-81 (antibody, V domains shown)
VH: B16 VH with F29S, A75S, S78T, P86L, T98R, M99T, R100P
VL: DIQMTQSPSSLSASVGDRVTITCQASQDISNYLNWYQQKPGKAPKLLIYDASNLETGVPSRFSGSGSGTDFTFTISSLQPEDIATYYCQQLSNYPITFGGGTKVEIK
notes: IgG
B22: SA-8-62 (antibody, V domains shown)
VH: QVQLVESGGGLVKPGGSLRLSCAASGFTFSSYSMHWVRQAPGKGLEWVSSISSSDSWIYYADSVKGRFTISRDNAKNSLYLQMDSLRAEDTAVYYCAKERVDYWHGYGMDVWGQGTTVTVSS
VL: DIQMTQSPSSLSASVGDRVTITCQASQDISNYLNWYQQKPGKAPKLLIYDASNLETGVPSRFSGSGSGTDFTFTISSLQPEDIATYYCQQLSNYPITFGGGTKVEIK
notes: IgG
B23: SA-8-64 (antibody, V domains shown)
VH: B22 VH with D84N, R100P, V101R, D102S
VL: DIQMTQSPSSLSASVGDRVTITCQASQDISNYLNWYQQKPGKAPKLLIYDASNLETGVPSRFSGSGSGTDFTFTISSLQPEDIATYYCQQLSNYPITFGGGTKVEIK
notes: IgG
B24: SA-8-67 (antibody, V domains shown)
VH: B22 VH with Q1E, D55P, W57H, D84N, R100P, V101R, D102S
VL: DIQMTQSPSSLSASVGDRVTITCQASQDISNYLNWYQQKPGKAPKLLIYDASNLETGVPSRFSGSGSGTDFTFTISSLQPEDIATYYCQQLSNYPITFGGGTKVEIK
notes: IgG
B25: SA-8-66 (antibody, V domains shown)
VH: QVQLVESGGGVVQPGRSLRLSCAASGFTFSSYGMHWVRQAPGKGLEWVAVINGDGSNKYYADSVKGRFTISRDNSKNTLYLQMNSLRAEDTAVYYCAKEPRSYWHGYGMDVWGQGTTVTVSS
VL: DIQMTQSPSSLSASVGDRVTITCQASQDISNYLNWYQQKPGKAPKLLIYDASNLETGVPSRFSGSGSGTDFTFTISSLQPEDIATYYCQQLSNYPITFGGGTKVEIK
notes: IgG
B26: SA-13 (antibody, V domains shown)
VH: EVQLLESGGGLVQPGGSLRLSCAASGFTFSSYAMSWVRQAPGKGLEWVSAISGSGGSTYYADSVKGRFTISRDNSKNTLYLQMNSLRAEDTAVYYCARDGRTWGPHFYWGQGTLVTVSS
VL: B8 VL
notes: IgG; also called SA-13 (parental)

What follows are binders tested against T3, human SIRPA Fc fusion antigen (human, UniProt P78324 31-373) (assay: ForteBio IgG avid;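 further: ForteBio sensor-based avid binding of anti-SIRPA antibodies in IgG format, with the binding partner in solution at 100 nM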).
T3 construct: heterologous signal peptide; not shown: human IgG1 Fc

| Kd [nM] | Binder |
| --- | --- |
| 0.341 | B1 |
| 0.339 | B2 |
| 0.396 | B3 |
| 3.03 | B4 |
| 2.78 | B5 |
| 2.61 | B6 |
| 2.3 | B7 |
| 1.92 | B8 |
| 1.1 | B9 |
| 1.06 | B10 |
| 0.31 | B11 |
| 0.537 | B12 |
| 0.676 | B13 |
| 0.573 | B14 |
| 0.441 | B15 |
| 0.504 | B16 |
| 0.742 | B17 |
| 0.71 | B18 |
| 0.505 | B19 |
| 1.41 | B20 |
| 0.711 | B21 |
| 0.371 | B22 |
| 0.952 | B23 |
| 1.84 | B24 |
| 2.14 | B25 |

These binders were tested against T4, human SIRPβ1 Fc fusion antigen (human, UniProt O00241 30-371) (assay: ForteBio IgG avid;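 further: ForteBio sensor-based avid binding of anti-SIRPA antibodies in IgG format, with the binding partner in solution at 100 nM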).
T4 construct: not shown: human IgG1 Fc
T4 sequence (O00241 30-371 limits assumed): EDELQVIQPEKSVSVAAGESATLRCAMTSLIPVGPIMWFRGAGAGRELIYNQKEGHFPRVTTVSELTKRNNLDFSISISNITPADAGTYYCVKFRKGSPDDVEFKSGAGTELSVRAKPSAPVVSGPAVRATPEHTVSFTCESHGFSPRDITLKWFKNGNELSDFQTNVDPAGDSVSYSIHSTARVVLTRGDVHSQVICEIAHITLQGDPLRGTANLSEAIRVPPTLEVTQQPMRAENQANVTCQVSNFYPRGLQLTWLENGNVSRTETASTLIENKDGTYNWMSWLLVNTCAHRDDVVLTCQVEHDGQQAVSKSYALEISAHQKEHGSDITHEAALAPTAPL

| binding result | Kd [nM] | Binder |
| --- | --- | --- |
| no binding (tested: 100 nM) |  | B1 |
|  | 12.4 | B2 |
| no binding (tested: 100 nM) |  | B3 |
|  | 12.3 | B26 |
| no binding (tested: 100 nM) |  | B4 |
| no binding (tested: 100 nM) |  | B5 |
| no binding (tested: 100 nM) |  | B6 |
|  | 9.31 | B7 |
|  | 3.45 | B8 |
|  | 4.75 | B9 |
|  | 2.08 | B10 |
|  | 1.36 | B11 |
|  | 3.13 | B12 |
|  | 4.08 | B13 |
|  | 2.6 | B14 |
|  | 3.94 | B15 |
|  | 2.05 | B16 |
|  | 3.45 | B17 |
|  | 2.95 | B18 |
|  | 2.82 | B19 |
|  | 4.25 | B20 |
|  | 2.59 | B21 |
|  | 4.67 | B22 |
|  | 8.36 | B23 |
|  | 14.2 | B24 |
|  | 13.1 | B25 |

These binders were tested against T1, mouse SIRPA overexpressed on CHO cells (assay: flow, CHO-muSIRPA;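 on relative MFI: antibody binding measured by flow cytometry: cells stained with 1 ug/ml test antibody for 1 h on ice, detected with PE-labelled secondary antibody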).
Procedure: Initial characterization of anti-SIRPA antibodies of the present disclosure involved determining their ability to bind cell lines overexpressing human or mouse SIRPA. Cells were harvested, plated at 10⁶/ml in a 96 well plate, washed, and incubated in 100 ul PBS containing 1 ug/ml Mab for 1 hour in ice. Cells were then washed twice and incubated in 100 ul PBS containing 5 ug/ml PE-conjugated secondary antibody for 30 minutes in ice. Cells were washed twice in cold PBS and acquired on a BD FACS Canto. Data analysis and calculation of mean fluorescence intensity (MFI) values or % positive cells was performed with FlowJo® (TreeStar) software version 10.0.7.

| relative MFI [fold over background] | Binder |
| --- | --- |
| 0.571 | B26 |

The binders below were run against T5, human SIRPA overexpressed on CHO cells (human, UniProt P78324 31-504) (assay: flow, CHO-huSIRPA;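 further: Anti-SIRPA antibodies applied at 1 µg/mL for 1 h on ice, binding read by flow cytometry using a PE-labelled secondary antibody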).
T5 construct: also called CHO-huSIRPA

| relative MFI [fold over background] | Binder |
| --- | --- |
| 59.9 | B26 |

These binders were tested against Human SIRPb D1 Fc (human, UniProt O00241 30-148, limits assumed) (assay: ForteBio IgG avid;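 further: antibody IgG captured on AHQ biosensors, then 100 nM Fc-fused SIRP antigen applied for 3 min, followed by 3 min buffer dissociation, kinetics fitted to a 1:1 model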).
Chain of Human SIRPb D1 Fc (O00241 30-148 limits assumed): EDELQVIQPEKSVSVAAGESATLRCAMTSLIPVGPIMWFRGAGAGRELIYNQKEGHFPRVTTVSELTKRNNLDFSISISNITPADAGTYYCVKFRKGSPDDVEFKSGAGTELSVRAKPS

| Kd [nM] | Binder |
| --- | --- |
| 19.6 | B26 |

The binders below were run against T2, Mouse SIRPA D1 Fc (assay: ForteBio IgG avid;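 further: antibody IgG captured on AHQ biosensors, then 100 nM Fc-fused SIRP antigen applied for 3 min, followed by 3 min buffer dissociation, kinetics fitted to a 1:1 model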).

| binding result | Binder |
| --- | --- |
| no binding (tested: 100 nM) | B26 |

Molecular target: T1, mouse SIRPA overexpressed on CHO cells
Assay: flow, CHO-muSIRPA
Remark: another data set of the same source

| binding result | Binder |
| --- | --- |
| no binding (tested: 1 ug/ml) | B26 |
